Source: the nanobody polyreactivity screen of Harvey et al. (2022)

test: yeast display, Sf9 membrane polyspecificity reagent, FACS + sequencing; frameworks hold sequencing errors
In short: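 Galactose-induced (36–48 hours) yeast carrying a synthetic nanobody display library were exposed to 10% biotinylated, detergent-solubilized Sf9 membrane reagent at 4 °C for 1 hour. FACS followed streptavidin microbead enrichment, using low and high (top ~1%) gates for expression (anti-HA) and reagent binding (streptavidin). Colony PCR, MiSeq 2 × 250 sequencing and CDR-length filtering followed. Labels for polyreactivity reflect the gate of origin.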

Row | Sequence | polyreactivity (PSR sort gate)
1 | QVQLVESGGGLVQAGGSLRLSCDASGRTFGYYAMGWYRHAPGQERELVAGIRSSGGSTYYADSVKGRFTISRDNAKNTVYLQMNSLKPEDTAVYYCAARLRSYHYRYGYDYWGQGTQVTVSS | high polyreactivity
2 | QVQLVESGGGLVQAGGSLRLSCDASGRTFIVYAMGWYRQEPGKERELVARISSGSRTSYADSVKGRFTISRDNAKNTVYLQMNSLKPEDTAVYYCNAREYLKPGVPYYSQQLDYWGQGTQVTVSS | low polyreactivity
3 | QVQLVESGGGLVQAGGSLRLSCDASGSIFDGYGMGWYRQAPGKERELVASITCNDGSTYYADSVKGRFTISRDNANNTFYLQMNSLKPEDTAVYYCASDQWGYEYDYWGQGTQVTVSS | low polyreactivity
4 | QVQLVESGGGLVQAGGSLRLSCDASGSIFGSYAMGWYRQAPGKEWELVAAISRRGGSTYYADSVKGRFTISRDNAKNTVYLQMNSLKAEDTAVYYCARRDYGVLNKGLGQEGDYWGQGTQVTVSS | low polyreactivity
5 | QVQLVESGGGLVQAGGSLRLSCDASGSIFNYYAMGWYRQAPGKERELVATITRGGSTYYADSVKGRFTISRDNAKNTVYLQMNILKPEDTAVYYCAKVGRSTAYQNGYDYWGQGTQVTVSS | low polyreactivity
6 | QVQLVESGGGLVQAGGSLRLSCDASGSIFQRYAMGWYRPAPGKERELVAGINWSGGRTYYADSVKGRFTISRDNAKNTVYLQMISLKPEDTAVYYCAAARYTRYDYWGQGTQVTVSS | high polyreactivity
7 | QVQLVESGGGLVQAGGSLRLSCDASGSIFRGYAMGWYRQAPGKEREFVAAISKRSGSTYYADSVKGRFTISRDNAKNSVYLQMNSLKPEDTAVYYCAKERVAAAGGYWGQGTQVTVSS | high polyreactivity
8 | QVQLVESGGGLVQAGGSLRLSCDASGSILWLNAMGWYRQAPGKERELVADITRGGSTYYADSVKGRFTISRDNAKNTVYLQMNSLKPEDTAVYYCAARLYGGYDWGQGTQVTVSS | high polyreactivity
9 | QVQLVESGGGLVQAGGSLRLSCDASGSPFEWYGMGWYRQAPGKERELVDAITSGGSTNYADSVKGRFTISRDNAKNTVYLQMNCLKPEVPAVYYCNAEYKPYHYYKAWVYTYDYGYWGQGTQVTVSS | low polyreactivity
10 | QVQLVESGGGLVQAGGSLRLSCDASGSTFNKYAMGWYRQAPGKERELVAAITTSGGRTTYADSVKGRFTISRDNAKNTVYVQMNSLKPEDTEVYYCAARYYIHRGYDYDYWGQGTQVSVSS | high polyreactivity
11 | QVQLVESGGGLVQAGGSLRLSCDASGSTFTFNDMGWYRQAPGKERELVAAITSGGSTTYADSVKGRFTISRDNAKNTVYLQMNSLKPEDTAVYYCAADYVYFYFYGYDSWGQGTQVTVSS | low polyreactivity
12 | QVQLVESGGGLVQAGGSLRLSCDASGSTFYSYTMGWSRQAPGKERELVATISWSGSSTYDADSVKGRFTISRDNAKNTVYLQMNSLTPEDTAVYYSAAVHYDKSAYWWWYNYWGQGTLVTVSS | low polyreactivity
13 | QVQLVESGGGLVQAGGSLRLSCDASGSTIIRNAMGWSRQAPGKERELVAAISTSGGRTHYADSVKGRFTISRDNAKNTVYLKMNSLKPEDTAVYYCATRGKGHYYYWGQGTQVTVSS | high polyreactivity
14 | QVQLVESGGGLVQAGGSLRLSCDASGSTSKTYAMGWYRQAPGKERELVAVISYGGTTYYADSVKGRFTISRDNAKNTVYLQLNSLKPEDTAVYYCAARAWHRRGVPHYYWGQGSQVTVSS | high polyreactivity
15 | QVQLVESGGGLVQAGGSLRLSCDASGSTSSKYAMGWYRQAPGKEWQLVATISWRTGSTYYADSVKGRFTISRDNAKNTVYLEMNSLKPEETAVYYCNARVAGRRKYDYWGQGTQVTVSS | high polyreactivity
16 | QVQLVESGGGLVQAGGSLRLSCDDSGFIFFDYAMGWYRQAPGKEREFVAAISTRGGSTYYADSVKGLFTISRDNAKNTVYLQMNSLKPEDTSVYYCNARTIRPWGENGYWGQGTQVSVSS | high polyreactivity
